Test results from paper doi:10.1101/2024.12.10.627806.
Values belong to the substance of their own block, whether it stands above or below them.

Columns and labels:
[1] = target: head-tail joining protein (80α gp50) (Staphylococcus aureus bacteriophage 80α); assay: cryo-EM structure; focused reconstruction of the neck of purified SaPI1 virions with C6 symmetry, 3.1 Å; AlphaFold2 models fitted and refined in ISOLDE; virions in 20 mM Tris-HCl pH 7.8, 50 mM NaCl, 4 mM CaCl2, 1 mM MgSO4, treated with Benzonase
[2] = target: head-to-tail connector protein (80α gp49) (Staphylococcus aureus bacteriophage 80α); assay: as above
[3] = target: major tail protein (80α gp53) (Staphylococcus aureus bacteriophage 80α); assay: as above
[4] = target: portal protein (80α gene product 42) (Staphylococcus aureus bacteriophage 80α); assay: as above
[5] = target: tail terminator protein (80α gp52) (Staphylococcus aureus bacteriophage 80α); assay: as above
[6] = target: tape measure protein (80α gp56) (Staphylococcus aureus bacteriophage 80α); assay: cryo-EM structure; asymmetric (C1) reconstruction of the neck of purified SaPI1 virions after symmetry expansion and masked classification on the tail interior, 3.4 Å (3.54 Å in the methods); AlphaFold2/AlphaFold3 models fitted

- stoichiometry N [1]: 6
Substance: head-tail joining protein (80α gp50) (natural protein)

- stoichiometry N [2]: 12
Substance: head-to-tail connector protein (80α gp49) (natural protein)

- stoichiometry N [3]: 6
Substance: major tail protein (80α gp53) (natural protein)

- stoichiometry N [4]: 12
Substance: portal protein (80α gene product 42) (natural protein)

- stoichiometry N [5]: 6
Substance: tail terminator protein (80α gp52) (natural protein)

- stoichiometry N [6]: 3
Substance: tape measure protein (80α gp56) (natural protein)
